T1: human Trop-2 on the surface of cells (CHO/Trop-2 cells; BxPC-3 cells; NCI-N87 cells) (human, UniProt P09758 27-323)
T1 sequence (looked up): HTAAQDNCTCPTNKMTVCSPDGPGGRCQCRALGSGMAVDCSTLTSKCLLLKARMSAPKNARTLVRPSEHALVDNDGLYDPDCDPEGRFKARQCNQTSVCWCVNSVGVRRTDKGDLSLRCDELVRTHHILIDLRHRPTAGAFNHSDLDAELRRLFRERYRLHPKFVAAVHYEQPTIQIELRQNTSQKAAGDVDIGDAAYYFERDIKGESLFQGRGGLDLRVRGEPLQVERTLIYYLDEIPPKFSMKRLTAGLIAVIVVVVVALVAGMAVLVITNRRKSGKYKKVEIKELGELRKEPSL

T2: recombinant human Trop-2-his protein (ACCESSION NO.: NP_002344.2, AA 1-274) (human, UniProt P09758 27-274)
T2 construct: range 27-274; also called recombinant human Trop-2 protein; recombinant human Trop-2 extracellular domain; not shown: his tag
T2 sequence (looked up): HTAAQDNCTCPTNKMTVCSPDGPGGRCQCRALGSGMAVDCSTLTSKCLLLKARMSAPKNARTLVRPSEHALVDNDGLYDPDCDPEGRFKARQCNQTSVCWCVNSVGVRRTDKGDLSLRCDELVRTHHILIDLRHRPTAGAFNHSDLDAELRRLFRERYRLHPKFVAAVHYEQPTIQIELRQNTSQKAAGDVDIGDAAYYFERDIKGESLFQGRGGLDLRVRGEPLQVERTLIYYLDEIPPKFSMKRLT

T3: recombinant mouse Trop-2-his protein (Cat.: 50922-M08H, Beijing Yiqiao Shenzhou Science and Technology Co., … (mouse, UniProt Q8BGV3 25-270))
T3 construct: Bought protein; not shown: his tag
T3 sequence (looked up): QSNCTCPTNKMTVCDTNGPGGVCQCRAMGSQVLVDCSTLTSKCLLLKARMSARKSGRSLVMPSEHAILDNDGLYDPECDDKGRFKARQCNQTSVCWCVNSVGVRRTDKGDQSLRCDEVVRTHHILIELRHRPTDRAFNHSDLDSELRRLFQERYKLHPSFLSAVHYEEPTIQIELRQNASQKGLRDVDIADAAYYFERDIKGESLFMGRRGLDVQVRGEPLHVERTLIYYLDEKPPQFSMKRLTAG

B1: h23-12-SN38 (antibody, human IgG1, kappa, V domains shown)
VH: QVQLVQSGAEVKKPGASVKVSCKASGYTFTSYWMHWVRQAPGQGLEWMGEITPSDNYGSYNQKFKGRVTITRDTSTSTAYMELSSLRSEDTAVYYCARGHGNYVSFDYWGQGTLVTVSS
VL: DIQMTQSPSSLSASVGDRVTITCRASQDISNYLNWYQQKPGKAPKLLIYYTSRLESGVPSRFSGSGSGTDFTLTISSLQPEDFATYFCQQGYTLPPYTFGQGTKLEIKR
modifications: CL2A-SN-38 conjugated to the DTT-reduced antibody; 7.5 SN38 per antibody; sites not stated
notes: also called h23-12 labeled with SN38
B2: chimeric antibody ch4-3 (antibody, human IgG1, V domains shown)
VH: QVQLQQSGPELVKPGASVKMSCKASGFTFTDYVIGWVKQRTGQGLEWIGEIYLGSGTIYYTEKFKGKATLTADTSSNTAYMQLSSLTSEDSAVYFCARGSIFPFDYWGQGTTLTVSS
VL: QIVLTQSPAIMSASPGEKVTMTCSASSSVSYMYWYQQKPGSSPRLLIYDTSTLASGVPVRFSGSGSGTSYSLTISRMEAEDAATYYCQQWSSYPYTFGGGTKLEIK
B3: ch4-3-SN38 (antibody, V domains shown)
VH: B2 VH
VL: B2 VL
modifications: CL2A-SN-38 conjugated to the DTT-reduced antibody; 7.5 SN38 per antibody; sites not stated
notes: also called ch4-3 labeled with SN38
B4: Sacituzumab-SN38 (antibody, human IgG1, kappa, V domains shown)
VH: QVQLQQSGSELKKPGASVKVSCKASGYTFTNYGMNWVKQAPGQGLKWMGWINTYTGEPTYTDDFKGRFAFSLDTSVSTAYLQISSLKADDTAVYFCARGGFGSSYWYFDVWGQGSLVTVSS
VL: DIQLTQSPSSLSASVGDRVSITCKASQDVSIAVAWYQQKPGKAPKLLIYSASYRYTGVPDRFSGSGSGTDFTLTISSLQPEDFAVYYCQQHYITPLTFGAGTKVEIKR
modifications: CL2A-SN-38 conjugated to the DTT-reduced antibody; 7.5 SN38 per antibody; sites not stated
notes: also called Sacituzumab labeled with SN38
B5: m23-12 (antibody, mouse IgG1, V domains shown)
VH: QVQLQQPGAELVKPGASVKLSCKADGYIFTSYWMHWVKQRPGQGLEWIGEITPSDNYTSYNQKFKGKATLTVDKSSSTAYMQLSSLTSEDSAVYYCTRGHGNYVSFDYWGQGTTLTVSS
VL: DIQMTQITSSLSASLGDRVTITCRASQDISNYLNWYQQKPDGTVKLLIYYTSRLHSGVPSRFSGSGSGTDYSLTISNLEQEDIATYFCQQGYTLPPYTFGGGTKLEIK
notes: also called murine antibody 23-12
B6: ch11-4-SN38 (antibody, V domains shown)
VH: QVQLQQPGAELVRPGASVNLSCKASGYTFTSYWINWVKQRPGQGLEWIGNIYPSNSYTNYNQKFKDTATLTVDKSSSTAYMQLSSPTSEDSAVYFCSSYRSDGFAYWGQGTLVTVSA
VL: DILLTQSPAILSVSPGEKVSFSCRASQNIGTSIHWYQQRTNGSPRLLIEFASESISGIPSRFSGSGSGTDFTLTINSVESEDIADYYCQQSNSWPFTFGGGTKLEIK
modifications: CL2A-SN-38 conjugated to the DTT-reduced antibody; 7.5 SN38 per antibody; sites not stated
notes: also called ch11-4 labeled with SN38

Key:
[1] = target: T1, human Trop-2 on the surface of cells …; experiment: cell-based or functional assay
[2] = target: T1, human Trop-2 on the surface of cells …; experiment: cell-based or functional assay; remark: listed apart in the source
[3] = target: T1, human Trop-2 on the surface of cells …; experiment: cell-based or functional assay; remark: listed apart in the source
[4] = target: T2, recombinant human Trop-2-his protein …; experiment: BLI, SN38-labeled antibody on AHC sensor, Trop-2-his 60 nM, 300 s binding
Description: (§1) Affinities of the antibodies were determined by an assay including capturing Fc fragments of the antibodies with anti-human IgG Fc capture (AHC) biosensors using Octet QKe system instrument from Fortebio.
(§2) For the assay, SN38-labeled antibodies prepared as described above: h23-12-SN38, ch4-3-SN38, ch11-4-SN38, and positive control antibody Sacituzumab-SN38, as well as naked antibodies h23-12, ch4-3, ch11-4, and positive control antibody Sacituzumab were diluted to 4 μg/ml with PBS and allowed to flow through the surface of an AHC biosensor (Cat.: 18-0015, PALL) for 120 s. Recombinant human Trop-2-his protein (ACCESSION NO.: NP_002344.2, AA 1-274) was used as a mobile phase, and its concentration was 60 nM. The binding time was 300 s and the dissociation time was 300 s. When the assay was finished, data from which the response value of blank control had been deducted were fitted to a 1:1 Langmuir binding model using software, and then kinetic constants for antigen-antibody binding were calculated.

[5] = target: T1, human Trop-2 on the surface of cells …; experiment: FACS, CHO/Trop-2 cells
Description: Suspensions of CHO cells recombinantly expressing human Trop-2 (CHO/Trop-2 cells) were incubated with chimeric antibodies ch3-11, ch4-3, ch17-1, ch11-4, and ch23-12 (dilutions at concentrations of 30 μg/ml and 10 μg/ml, and serial dilutions of 9 concentrations obtained through 3-fold serially diluting a solution with an initial concentration of 5 μg/ml, 11 concentrations in total) for 30 min at 37° C. Controls as follows were set: (1) Positive Control (PC): control antibody Sacituzumab; (2) Negative Control (NC): IgG1 isotype control antibody NC-IgG1. The cells were washed 3 times with PBS, and 1:100 dilution of goat anti-human IgG-FITC (Cat.: F9512, Sigma) was added into the cell which then were incubated for 30 min. Then the cells were washed 3 times with PBS again, and the Mean Fluorescence Intensity (MFI) of the cells was measured by a flow cytometer (model B49007AD, SNAW31211, BECKMAN COULTER) to detect binding ability of the chimeric antibodies to human Trop-2 on the surface of CHO cells.

[6] = target: T1, human Trop-2 on the surface of cells …; experiment: cell-based or functional assay; remark: listed apart in the source
[7] = target: T2, recombinant human Trop-2-his protein …; experiment: ELISA, coated Trop-2-his 0.2 µg/ml
Description: Plates were coated with recombinant human Trop-2-his protein (ACCESSION NO.: NP_002344.2, AA 1-274) at a concentration of 0.2 μg/ml overnight at 4° C. and then blocked with 5% BSA for 60 min in a constant temperature incubator at 37° C. Chimeric antibodies ch3-11, ch4-3, ch17-1, ch11-4, and ch23-12 and control antibody Sacituzumab (serial dilutions of 8 concentrations in total obtained through 3-fold serially diluting a solution with an initial concentration of 2 μg/ml) were added into the plates which were then incubated in a constant temperature incubator at 37° C. for 60 min. The plates were washed with PBST 4 times, and 1:5000 dilution of HRP-anti-human Fc (Cat.: 109-035-098, Jackson ImmunoResearch) was added into the plates for reaction for 45 min. TMB (Cat.: ME142, GalaxyBio, Beijing) substrate was added for color development for 15 min, and then 2M HCl was added to stop reaction. Absorbances at 450 nm and at 630 nm (as reference wavelength) were read, and A450 nm-630 nm values of the wells in the plates were recorded.

[8] = target: T2, recombinant human Trop-2-his protein …; experiment: BLI, antibody on AHC sensor, Trop-2-his 60 nM
Description: 5-6 days after cell transfection, culture supernatants were purified through ProA affinity chromatography column to obtain different humanized antibodies. Affinities of the obtained antibodies were determined by an assay including capturing Fc fragments of the antibodies with anti-human IgG Fc capture (AHC) biosensors using Octet QKe system instrument from Fortebio. For the assay, each of the humanized antibodies and control antibody Sacituzumab was diluted to 4 μg/ml in PBS, and was allowed to flow through the surface of an AHC biosensor (Cat.: 18-0015, PALL) for 120 s. Recombinant human Trop-2-his protein (ACCESSION NO.: NP_002344.2, AA 1-274) was used as a mobile phase, and its concentration was 60 nM. The binding time was 100 s and the dissociation time was 300 s. When the assay was finished, data from which the response values of blank control had been deducted were fitted to a 1:1 Langmuir binding model using software, and then kinetic constants for antigen-antibody binding were calculated.
Affinities of the antibodies obtained from the combinations of mutants of murine antibody 23-12, chimeric antibody ch4-3 and control antibody Sacituzumab to recombinant human Trop-2-his protein were determined by ForteBio (Table 8).

[9] = target: T2, recombinant human Trop-2-his protein …; experiment: BLI, naked antibody on AHC sensor, Trop-2-his 60 nM, 300 s binding
Description: as §1, §2

[10] = target: T3, recombinant mouse Trop-2-his protein …; experiment: ELISA, coated mouse Trop-2-his, purified murine antibody
Description: Washed with PBS 3 times, the plates were blocked with the added 5% BSA PBS at 37° C. for 60 min, and then washed 3 times with PBST. The 15 purified murine antibodies were diluted to 1 μg/ml with PBS. Controls as follows were set: (1) Positive Control (PC): Sacituzumab (WHO Drug Information (Vol. 31, No. 1, 2017), SEQ ID NO: 39 and SEQ ID NO: 40), a version having murine IgG constant region, […]; (2) Negative Control (NC): an antibody from an irrelevant hybridoma, 1 μg/ml; (3) blank control: PBS. After incubation at 37° C. for 60 min, the plates were washed 4 times with PBST. […] Afterwards, the plates were washed with PBST 4 times, and TMB substrate was added for color development at 37° C. for 10 min. Then 2M HCl was added to stop reaction; and absorbances at 450 nm and at 630 nm (as reference wavelength) were read, and A450 nm-630 nm values of the wells in the plates were recorded.

Internalization percentage, 1 h, NCI-N87 cells, FACS [1] [%] | Internalization percentage, 1 h, BXPC-3 cells, FACS [2] [%] | IC50 (µg/ml), inhibitory activity of anti-Trop-2 ADCs on cell growth, BxPC-3 cells [3] [µg/mL] | Kd [4] [nM] | other results | Binder
51.1 | 20.1 | 1.41 | 0.441 |  | B1
50.2 | 30.7 |  |  | EC50 [5]: 3.33 nM; Internalization percentage (%), 1 h, BxPC-3 cells, FACS [6]: 17.1%; Internalization percentage (%), 3 h, BxPC-3 cells, FACS [6]: 23.1%; Internalization percentage (%), 5 h, BxPC-3 cells, FACS [6]: 28.1%; EC50 [7]: 0.32 nM; Kd [8]: 0.3 nM; Kd [9]: 0.323 nM | B2
64.6 | 57.7 | 3.3 | 0.177 |  | B3
47.5 | 32.7 | 4.31 | 0.431 |  | B4
 |  |  |  | binding result [10]: no binding (tested: 1 µg/ml) | B5
 | 51.1 | 2.88 | 0.0734 |  | B6

From patent US20240092930A1 (MABWELL SHANGHAI BIOSCIENCE, published 2024)
